The source of these data is patent publication US20240240160A1, “NOVEL OLIVETOL SYNTHASES FOR C[…]” (priority 2021, published 2024).

One assay addresses T1, OLS from C. sativa (Cannabis sativa, UniProt B1Q2B6).
T1 construct: made in house
T1 sequence (B1Q2B6 1-385): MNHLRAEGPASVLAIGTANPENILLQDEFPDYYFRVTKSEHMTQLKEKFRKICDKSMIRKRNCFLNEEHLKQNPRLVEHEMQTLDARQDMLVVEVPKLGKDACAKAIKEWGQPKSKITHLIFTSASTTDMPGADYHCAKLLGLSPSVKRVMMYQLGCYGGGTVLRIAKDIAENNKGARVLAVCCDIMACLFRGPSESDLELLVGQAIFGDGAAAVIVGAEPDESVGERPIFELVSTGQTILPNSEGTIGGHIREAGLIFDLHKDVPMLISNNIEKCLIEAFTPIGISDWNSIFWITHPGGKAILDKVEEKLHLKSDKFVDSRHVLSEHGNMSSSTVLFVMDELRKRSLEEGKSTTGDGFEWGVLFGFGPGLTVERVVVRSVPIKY
In words: Product inhibition assay with butyryl-CoA and malonyl-CoA. The format is biochemical. To be noted: increasing concentrations of the added product. The protocol:
(§1) Assays were performed in a total volume of 50 μL in 100 mM Tris, pH 7.5 buffer containing 100 μM malonyl-CoA; 100 µM hexanoyl-CoA; a malonyl-CoA regenerating system comprising malonyl-CoA synthetase, excess malonate, and ATP; and excess purified olivetolic acid cyclase (OAC). The major product in this assay was olivetolic acid (OLA), and the triketide pentyl diacetic acid lactone (PDAL) was a side product. N-His-tagged purified enzymes were assayed under these assay conditions at enzyme concentrations and reaction times suitable for initial rate measurements of product formation. Reactions were initiated by addition of the PKS, then incubated for 30 min. Subsequently, 10 μL of reaction solution was removed and quenched into 15 volumes of 75% acetonitrile containing 0.1% formic acid and internal standards, then centrifuged to pellet denatured protein. Supernatants were transferred to fresh plates for LC-MS analysis of OLA, olivetol (OL), and PDAL as described in the Method section above.
(§2) Assays were performed as described in Example 3 with the following exception: instead of hexanoyl-CoA (C6), butyryl-CoA (C4) was used as substrate along with malonyl-CoA, in order to evaluate the inhibitory effect of the products with hexanoyl-CoA (i.e., OLA, OL and PDAL) on the activity of the enzymes. Accordingly, the products in this assay were the tetraketides divarinic acid (DVA) and divarinol (DVL) and the triketide propyl diacetic acid lactone (propyl-DAL) (see FIG. 4). The rates to form these products were measured in the presence of various concentrations of OLA, OL, and PDAL.

Assay [1] concerns QDX46968.1 from Anoectochilus roxburghii (SEQ ID NO:6). The description is as above. To be noted: increasing concentrations of the added product. The format is biochemical. The protocol: as §1, §2
Assay [2] has as its system AAZ32094.1 from Oncidium hybrid cultivar (SEQ ID NO:2). The description is as above. The format is biochemical. To be noted: increasing concentrations of the added product. The protocol: as §1, §2
Assay [3] concerns E. coli derivative strain which overexpressed an acyl-CoA synthetase (fadD) gene and expressed an olivetolic acid cyclase (OAC) from Cannabis sativa. Briefly: OL, OLA and PDAL production in E. coli from plasmid-expressed Type-III PKS genes. The format is cell-based. To be noted: gene on plasmid; for Total: OL + OLA + PDAL; for OL / OLA / PDAL: constitutive promoter, culture spiked with 4 mM hexanoic acid. The protocol:
(§3) To test olivetolic acid production in E. coli, strains comprising a putative OLS gene and an OAC gene from C. sativa were inoculated in multi-well plates containing LB supplemented with 1% glucose and appropriate concentrations of antibiotics. After 6 hours of cultivation at 32° C., the cells were transferred with a 10% inoculum to a P-limited seed medium (see Table 2) and cultivated for ˜18 hours at 32° ° C. to reach an OD of 2.0-4.0. The cultures were transferred with a 20% inoculum in a P-minimal medium (see Table 3) supplemented with 2% glucose and appropriate concentrations of antibiotics. After 3 hours of cultivation at 32° C., the culture was spiked with 4 mM hexanoic acid (˜OD 1.5-2.0). The resulting cultures were then harvested at either 3 hours or 21 hours post hexanoic acid spike; a final OD was taken. 300 μL of butyl acetate containing 500 mg/L undecanoic acid was added to each multi-well plate. The plates were then vortexed for 30 minutes at 1500 rpm and centrifuged for 10 minutes at 4500 rpm. 50 μL of organic layer was transferred to a 96-well plate and derivatized with 50 μL of N,O-Bis(trimethylsilyl)trifluoroacetamide (BSTFA). The plate was then incubated at room temperature for 2 hours to allow for complete derivatization. The samples were then run on GC-FID for analytical quantification of olivetolic acid (OLA), olivetol (OL), PDAL, and hexanoic acid.
(§4) Olivetol, PDAL, OLA, HTAL, CBGA and combinations thereof were analyzed by LCMS or LCMS/MS methods using C18 reversed phase chromatography coupled to either EXACTIVE™ (ThermoFisher) or QTRAP® 4500 (Sciex) mass spectrometers.
(§5) For reversed phase LCMS, compounds were identified by their LC retention times and MRM transitions specific to the compounds. LCMS/MS analysis was conducted on a Shimadzu UHPLC system coupled with AB Sciex QTRAP 4500 mass spectrometer. Agilent Eclipse XDB C18 column (4.6×3.0 mm, 1.8 μm) was used with a 1-min gradient elution at 1 mL/min using water containing 0.1% ammonia acetate as mobile phase A and 90% methanol containing 0.1% ammonia acetate as mobile phase B. The LC column temperature was maintained at 45° C. Negative ionization mode was used for all the analytes.
The genes for 20 Type-III PKS enzymes were codon optimized for E. coli and cloned under control of a constitutive promoter into an expression vector (p15a replicon, carbenicillin resistance marker). The 20 plasmids were transformed into an E. coli derivative strain which overexpressed an acyl-CoA synthetase (fadD) gene and expressed an olivetolic acid cyclase (OAC) from Cannabis sativa.
(§6) The in vivo assay procedure and analytical methods were performed as described above.

The test system is the same in assay [4]. Briefly: OL, OLA and PDAL production in E. coli from genome-integrated Type-III PKS genes. The format is cell-based. Particulars: for Total: OL + OLA + PDAL; for OL / OLA / PDAL: constitutive promoter, 4 mM hexanoic acid. The protocol:
as §3, §4, §5
Three of the type-III PKS genes from Example 1 were integrated under control of a constitutive promoter into an E. coli derivative strain which overexpressed an acyl-CoA synthetase (fadD) gene and expressed an olivetolic acid cyclase (OAC) from Cannabis sativa.
as §6

With `CCCCCc1cc(O)cc(=O)o1` [PDAL, pentyl diacetic acid lactone], the “inhibition of the activity of OLS from C. sativa” value against OLS from C. sativa is listed as “inhibitory, but to a somewhat lesser extent”. Besides, the “effect on activity of the enzyme” value in assay [1] and in assay [2] was “not inhibited” each time.

B1: QCO76957.1: Type-III PKS enzyme from Dendrobium officinale (protein)
chain: MPSLESIRKAPRANGFASILAIGRANPENFIEQSTYPDFFFRITNSEHLVDLKKKFQRICDKTAIRKRHFVWNEEFITTNPCLHTFMDKSLDVRQEVAIREIPKLGAKAAAKAIQEWGQPKSRITHLIFCTTSGMDLPGADYQLTQILGLNPNVERVMLYQQGCFAGGTTLRLAKCLAESRKGARVLVVCAETTTVLFRGPSEEHQEDLVTQALFADGASALIVGADPDEAAHERASFVIVSTSQVLLPDSAGAIGGHVSEGGLLATLHRDVPKIVSKNVEKCLEEAFTPFGITDWNSIFWVPHPGGRAILDLVEERVGLKPEKLLVSRHVLAEYGNMSSVCVHFALDEMRKRSAIEGKATTGEGLEWGVVFGFGPGLTVETVVLRSVPL
modifications: Dendrobium officinale; (1)..(390) QCO76957.1
Regarding B1, in assay [3], the Total turned out to be 2095 µM, the “levels of OLA relative to the E. coli strain with OLS from C. sativa” value is “over two-fold”, the OL was found to be 579 µM and the OLA was 754 µM. In assay [3], the PDAL is 761 µM. Moreover, in assay [4], the “products produced by strains with chromosomally expressed enzyme” value is “produced olivetol (OL), olivetolic acid (OLA) and pentyl diacetic acid lactone (PDAL)”; the Total amounted to 483 µM; the OL was determined as 178 µM; the OLA was found to be 223 µM. Moreover, the PDAL in assay [4] was determined as 82 µM.

B2: XP_020572025.1: Type-III PKS enzyme from Phalaenopsis equestris (protein, listed as Phalaenopsis equestris)
chain: MPSFPSVKKAPTAEGFASILAIGRANPENFIEQSAYPDFFFRVTNSEHLVDLKKKFQRICDKTAIRKRHFVWNEEFLTANPCFSTFMDKSLNVRQEVAIREIPKLGAKAATKAIEDWGQPKSRITHLIFCTTSGMDLPGADYQLTQILGLNPNVERVMLYQQGCFAGGTTLRLAKCLAESRKGARVLVVCAETTTVLFRAPSEEHQDDLVTQALFADGASAVIAVIVGADPDEAADERASFVIVSASQVLLPDSAGAIGGHVSEGGLLATLHRDVPQIVSKNVGKCLEEAFTPFGISDWNSIFWVPHPGGRAILDQVEERVGLKPEKLSVSRHVLAEYGNMSSVCVHFALDEMRKRSAKEGKATTGEGLEWGVLFGFGPGLTVETVVLQSVPI
modifications: (1)..(393) XP_020572025.1
Regarding B2, in assay [3], the Total was determined as 0 µM, the OL was determined as 0 µM, the OLA is 0 µM and the PDAL was determined as 0 µM.

B3: AIM58716.1: Type-III PKS enzyme from Cymbidium hybrid cultivar (protein)
chain: MPSLESVKKSNRADGFASILAIGRANPENFIEQSTYPDFFFRVTNSEHLVNLKKKFQRICDKTAIRKRHFVWNEELLNANPCLGTFMDNSLNVRQEFAIREIPKLGAEAATKAIQEWGQPKSRITHLIFCTTSGMDLPGADYQLTQILGLNPNIERVMLYQQGCFAGGTTLRLAKCLAESRKGARVLVVCAETTAVLFRAPSEEHQDDLVTQALFADGASALIVGADPDETAHERASFVIVSTSQVLLPDSAGAIGGHVSEGGLIATLHRDVPQIVSKNVGKCLEEAFTPLGISDWNSIFWVPHPGGRAILDQVEERVGLKPEKLIVSRHVLAEYGNMSSVCVHFALDEMRKRSKKEGKATTGEGLDWGVLFGFGPGLTVETVVLHSVPI
modifications: Cymbidium hybrid cultivar; (1)..(390) AIM58716.1
As to B3, in assay [3], the Total is 1045 µM, the OL was determined as 427 µM, the OLA was 436 µM and the PDAL came out at 181 µM. Besides, in assay [4], the “products produced by strains with chromosomally expressed enzyme” value is “produced olivetol (OL), olivetolic acid (OLA) and pentyl diacetic acid lactone (PDAL)”; the Total came out at 927 µM; the OL is 249 µM; the OLA was 472 µM. Further, in assay [4], the PDAL was 206 µM.

B4: A0A0D9W1R8: Type-III PKS enzyme from Leersia perrieri (protein, listed as Leersia perrieri)
chain: MGSQGEYYNKEGRGQAAILGIGSAVPPYELPQSSFPDYYFDVSNSNHRQDLKAKFAKICERTMIEKRCVYMSEEFLRSNPSVTAYSSPSIDVRQRLTDATVPELGAAAARVAIADWGRPASEISHLVMCSTVSGCMPGADYEVVKLLGLPLSTKRCMMYHIGCHGGGTVLRIAKDIAENNPGARVLVVCSEVISMALRGPSDSNMGNLVGQALFGDAGAAVVVGTDPVESCGERALFEMVAAMQDIIPDTEEMVAKLREDGLLYSLHRDVPVHIEANIEAIVNKSGVGAKAADWNEDVFWLVHPGGRDILDRVARRLGLRHDKVEVSREVMRKHGNTLSSCVVIAMEEMRRRSAERGMGTAGEGLEWGLLFGFGPGLTVETILLRAPLTHPPPCAHAAVRPQ
modifications: (1)..(402) ProtKB - A0A0D9W1R8
Consider B4, for which, in assay [3], the Total amounted to 0 µM, the OL stood at 0 µM, the OLA was found to be 0 µM and the PDAL stood at 0 µM.

B5: B1Q2B6: Cannabis sativa olivetol synthase (OLS), 3,5,7-trioxododecanoyl-CoA synthase (protein, listed as Cannabis sativa)
chain: MNHLRAEGPASVLAIGTANPENILLQDEFPDYYFRVTKSEHMTQLKEKFRKICDKSMIRKRNCFLNEEHLKQNPRLVEHEMQTLDARQDMLVVEVPKLGKDACAKAIKEWGQPKSKITHLIFTSASTTDMPGADYHCAKLLGLSPSVKRVMMYQLGCYGGGTVLRIAKDIAENNKGARVLAVCCDIMACLFRGPSESDLELLVGQAIFGDGAAAVIVGAEPDESVGERPIFELVSTGQTILPNSEGTIGGHIREAGLIFDLHKDVPMLISNNIEKCLIEAFTPIGISDWNSIFWITHPGGKAILDKVEEKLHLKSDKFVDSRHVLSEHGNMSSSTVLFVMDELRKRSLEEGKSTTGDGFEWGVLFGFGPGLTVERVVVRSVPIKY
modifications: (1)..(385) B1Q2B6 OLIS_CANSA 3,5,7-trioxododecanoyl-CoA synthase
As to B5, in assay [3], the Total worked out at 1072 µM, the OL was found to be 324 µM, the OLA was found to be 279 µM and the PDAL was 470 µM.
